Laboratory results as given in publication PMC7455749, “A leap in quantum efficiency through light harvesting in photoreceptor UVR8” (Nature Communications, 2020).

What was measured:
[1] = biological target: the molecule itself; test: not stated; oligomeric state of the UVR8 mutants without UV-B; method not given; UVR8 lysis buffer (150 mM NaCl, 25 mM Tris, pH 8.0), room temperature
[2] = biological target: the molecule itself; test: SEC; Superdex200 size column run after the sub-nanosecond TCSPC measurements (290 nm pulsed LED, 10 uM samples); dimer to monomers

B1: UVR8 mutant 6Wd + 3Wp (all four tryptophans of the 4Wc pyramid center changed to phenylalanine, on the W400F template) (receptor, Arabidopsis thaliana, UniProt Q9FN03 1-440, looked up)
chain: MAEDMAADEVTAPPRKVLIISAGASHSVALLSGDIVCSWGRGEDGQLGHGDAEDRPSPTQLSALDGHQIVSVTCGADHTVAYSQSGMEVYSWGFGDFGRLGHGNSSDLFTPLPIKALHGIRIKQIACGDSHCLAVTMEGEVQSWGRNQNGQLGLGDTEDSLVPQKIQAFEGIRIKMVAAGAEHTAAVTEDGDLYGWGWGRYGNLGLGDRTDRLVPERVTSTGGEKMSMVACGFRHTISVSYSGALYTYGWSKYGQLGHGDLEDHLIPHKLEALSNSFISQISGGFRHTMALTSDGKLYGWGWNKFGQVGVGNNLDQCSPVQVRFPDDQKVVQVSCGFRHTLAVTERNNVFAWGRGTNGQLGIGESVDRNFPKIIEALSVDGASGQHIESSNIDPSSGKSFVSPAERYAVVPDETGLTDGSSKGNGGDISVPQTDVKRVRI
notes: UVR8, Arabidopsis thaliana; W400F template
B1 was tested, and the “stoichiometry N” value [1] was 2.

B2: Arabidopsis thaliana UVR8 (UV … LOCUS 8) W400F, redefined as wild type (WT) (receptor, UniProt Q9FN03 1-440, looked up)
chain: MAEDMAADEVTAPPRKVLIISAGASHSVALLSGDIVCSWGRGEDGQLGHGDAEDRPSPTQLSALDGHQIVSVTCGADHTVAYSQSGMEVYSWGWGDFGRLGHGNSSDLFTPLPIKALHGIRIKQIACGDSHCLAVTMEGEVQSWGRNQNGQLGLGDTEDSLVPQKIQAFEGIRIKMVAAGAEHTAAVTEDGDLYGWGWGRYGNLGLGDRTDRLVPERVTSTGGEKMSMVACGWRHTISVSYSGALYTYGWSKYGQLGHGDLEDHLIPHKLEALSNSFISQISGGWRHTMALTSDGKLYGWGWNKFGQVGVGNNLDQCSPVQVRFPDDQKVVQVSCGWRHTLAVTERNNVFAWGRGTNGQLGIGESVDRNFPKIIEALSVDGASGQHIESSNIDPSSGKSFVSPAERYAVVPDETGLTDGSSKGNGGDISVPQTDVKRVRI
notes: UVR8, Arabidopsis thaliana; the construct holds residue 400 (W400F); also called UVR8 WT
B2: binds [2].
